The nature of the data set: soluble on expression in E. coli; label from the status in PepcDB or PDB records.
Take “MRVLGIETSCDETGIAVYDDKAGLLANQLYSQVKLHADYGGVVPELASRDHVRKTVPLIQAALKEANLSAKDIDAVAYTAGPGLVGALLVGATIGRALAFAWGVPAVPVHHMEGHLLAPMLEENAPEFPFVALLVSGGHTQLISVTGIGEYLLLGESVDDAAGEAFDKTAKLLGLDYPGGPMLSRMAQQGTVGRFTFPRPMTDRPGLDFSFSGLKTFAANTIRANGDDDQTRADIARAFEDAVVDTLAIKSKRALDQTGFKRLVIAGGVSANQTLRLKLADMMQKRGGEVFYARPEFCTDNGAMIAYAGMVRLRSNLNSELSVSVRPRWPLSELPKV”: the “soluble on expression in E. coli” value is reported as “not soluble”.

On to “MRVLISPWGDFRKWKVAKYTFSGKSLESRSTLPIMVDVIRPQETIIIVPDTLSSDFSSQESMWNSVKDEVKEFTNQLGVEDVKIIVVPGSGSFSNGSFFGNPMDAYMFLLYELAKELPLEIKEVHLDVTHGLNYLTFFTVRVVQELLGILSIRKGVVLKTYSSDPFVDGSVRHLRVNLIEEATIDPKPLSEFLEGKFLVNYSMDRVEFGEIARRLKAKELDLGRINSWIASLKHGLPLVFTTMYPQEGEVEGVLEDVVAKFLEGFNVGEGKVVRSISLGKDFGSLAKLYFQLRVLKDLKEMYNLPKDEASVEELLKISEEIFTGRIKHSTKVELDNVANRVEKTEGWVKLSEFFKNANPQVDPRNFFAHAGLEANLVEVKRNGELYLRYTKGKVRWGGKEEKAEKVIREILTSRRWF”, for which the “soluble on expression in E. coli” value was “soluble”.

Take “MRVVAEDLWFPEGPVWVGDGSLLVVEIRRKTLTRIFPDGRKHIVAELGGGPNGAAMGPDGYCYVANNGGFAFRQREDGRWVTSGTPEDYRTGRIERVDIETGKVEVLYDRIDGRNIRGPNDLVIDAAGGIWFTDPGKTRHRDWDRGSICYATIDGSHIEEKVFPIHKPNGIGLSPDGRTLYVAETETARLWAWDLAGPGRLAAPAAASPASPHGSRLAYASPVYQRFDSLAVQADGAVAIGTLDRGGITTVRPDGSASFVPVAGDTHITNLCFGGEGMRKAYVTQSYAGRLVEIDWASPGLRLFEILEHHHHHH”: the “soluble on expression in E. coli” value was “not soluble”.

As for “MRVYAIADPHLSRVHPKPMTVFGAGWEGHPEAFFRGWREVVGEEDLVVVPGDISWAMRLSEAIPDLLDLARLPGRKVLLKGNHDYWWPSISRLRAALPPGMYALQNDALVVDGVAVAGTRGWQYPPQTPEDEKVFAREVERLKLSLKALEGQPYRHLVVAFHFPPFGPGGEASPLLELAAGAHPQAIVYGHLHGADPAKLPQSYRGIPLHLVAADALRFRPKLVLEAD”, the “soluble on expression in E. coli” value was “soluble”.

On to “MRVYDMHVHLHEYSDREVEEILDADKSLVVVAVSDDLESAWRTLDLWHTFGGRVVPCLGFHPWNVREGRVWEAWEVLRLAYRYGVPCLGEVGLDRRFVDEYTWRVQNEVFDAFVQLAEDMGVMLNIHAPDAWKHVAHRIGWTSRARFMYHWYTGPATLPRALPEGRVWFSINSAIRVQEKSVRVAREIPLRSLVVESDGPYNYRGLRLSPLMVRETVKLVAEARGEDPGRLMEAISLNSERLLGLL”, for which the “soluble on expression in E. coli” value is reported as “not soluble”.

In the case of “MRWKRTLQLLDVHCEGEIGRVVTGGAPKIPGNTVAEQLHWMNTDPQGEALRRFLTLEPRGTPMGSVDLLLPPKHPDAHAAFVILQPDQAHASSGSNSICATTALLESGMVEMQEPETVIILETAAGLVKATATCRDGRCEKVKLTMVPSFVHELDVSIDTPEWGRVTMDISYGGIFYALVDVRQIGLTIEKANAAKLVAAGMTLKDLVNREMTVVHPEIPAISGVAYVMFRDVDADGSIRTCTTMWPGRADRSPCGTGNSANLATLYARGKVKVGDEYKSRSIIGSEFDVGLSAVTEVAGRPAVIPTIAGRGFTFGLHQVGLDPFDPLGDGFAMTDVWGPEAGNILEHHHHHH”, the “soluble on expression in E. coli” value is on record as “soluble”.

Consider “MRYAAYYAPRPDSALWRAGCEWLGYDAAGGAQLPRPDVEGVEAGELAGLTREAARYGWHATLKAPFALRPGVGEDALLLQTSMLARRFQPFALSLQVGWLGDFLALRPAGPCAELDELAAACSVSLEGLADRHAPLRPREGLDPRQQALYRRWGYPYVFEQFRFHLTLSDRLDRESAAAVLIERGARRHFAGLLQQVAVAGVTLFVEREQGGPFRYLAYCGFNGEVARHGR”, for which the “soluble on expression in E. coli” value is “not soluble”.

Regarding “MRYEALRLLCFFDLPMESKDEKRIYRNFRKELISNGFEMLQFSVYYRTCPNRSFANKFYKKLKMSNLPAGNVRLLAVTEKQFSEMTLIIGGKTKQEEIVSDNKLVIILEHHHHHH”, the “soluble on expression in E. coli” value is reported as “soluble”.

The record behind these values is the DeepSol protein solubility set.
